Experimental findings from article PMC6751061 are described below.

This data set addresses T1, LexA (Bacillus subtilis 3610) (UniProt P31080).
T1 sequence: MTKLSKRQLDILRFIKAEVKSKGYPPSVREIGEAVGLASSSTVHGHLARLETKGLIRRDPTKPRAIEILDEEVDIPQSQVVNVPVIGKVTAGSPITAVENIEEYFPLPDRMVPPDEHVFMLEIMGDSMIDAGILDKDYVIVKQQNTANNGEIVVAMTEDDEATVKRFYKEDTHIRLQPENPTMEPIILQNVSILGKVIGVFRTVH
Description: EMSA. The settings on record: EMSA: 4 nM 32P probe, LexA 1-500 nM, binding buffer as printed (likely 5x stock): 100 mM HEPES pH 7.5, 100 mM Tris-HCl, 50% glycerol, 500 mM NaCl, 10 mM EDTA ….

For the sequence “AGGAGGGATCCTCTATATTGCTATTTCATGTTGGTGGATACAAGTAAAACCAAAATTTCCATATCCATCAGACTTAATGATTTTATCTAGAGAAATAGAAACGTAAACGAAAAAAATATTATTTTTTTAACTTTTTGTTTGAGCCTTTTTACAGATTGGAAGTCTTCAGAATAGGTCTTTTTTGGTAGTACTTACAATAATTATTATATTACATAAGTACTAGATCGTACACGAATTCCTCCT (double strand) [PsigNDN]”, the binding signal (fold lower affinity) came to 500.
As for “CCTGACGATCACTCATTCTATTTTTTCCTCCTTTATGTTACCACTACATATACTATACCCTGTTTGAAGGGATTTGCCAAGAAAAAAGCGAACGCATATTCGGATTTTTTCTTGGCGTGATTCCTATCAAAATATCATAATGTATCAGAGAAATCATGTTTTCTTAGGAGGATAATGTGCTG (double strand) [PrecA]”, the binding result is on record as “binds”.
